We go through 2 molecules from article PMC3894988, “Human Variants in the Neuronal Basic Helix-Loop-Helix/Per-Arnt-Sim (bHLH/PAS) Transcription Factor Complex NPAS4/ARNT2 Disrupt Function” (PLoS ONE, 2014).

Where a chain is given by its changes, count along the chain named. Numbers in names are those of the source.

In assay [1] the target is endogenous ARNT2 (HEK293T) (human (endogenous in HEK293T)) (UniProt Q9HBZ2).
Assay [2] concerns the target ARNT2, overexpressed (human Aryl hydrocarbon Receptor Nuclear Translator 2) (human, UniProt Q9HBZ2 1-717). As to the kind of experiment: cell-based or functional assay.

ARNT2, overexpressed (human Aryl hydrocarbon Receptor Nuclear Translator 2), sequence (Q9HBZ2 whole entry): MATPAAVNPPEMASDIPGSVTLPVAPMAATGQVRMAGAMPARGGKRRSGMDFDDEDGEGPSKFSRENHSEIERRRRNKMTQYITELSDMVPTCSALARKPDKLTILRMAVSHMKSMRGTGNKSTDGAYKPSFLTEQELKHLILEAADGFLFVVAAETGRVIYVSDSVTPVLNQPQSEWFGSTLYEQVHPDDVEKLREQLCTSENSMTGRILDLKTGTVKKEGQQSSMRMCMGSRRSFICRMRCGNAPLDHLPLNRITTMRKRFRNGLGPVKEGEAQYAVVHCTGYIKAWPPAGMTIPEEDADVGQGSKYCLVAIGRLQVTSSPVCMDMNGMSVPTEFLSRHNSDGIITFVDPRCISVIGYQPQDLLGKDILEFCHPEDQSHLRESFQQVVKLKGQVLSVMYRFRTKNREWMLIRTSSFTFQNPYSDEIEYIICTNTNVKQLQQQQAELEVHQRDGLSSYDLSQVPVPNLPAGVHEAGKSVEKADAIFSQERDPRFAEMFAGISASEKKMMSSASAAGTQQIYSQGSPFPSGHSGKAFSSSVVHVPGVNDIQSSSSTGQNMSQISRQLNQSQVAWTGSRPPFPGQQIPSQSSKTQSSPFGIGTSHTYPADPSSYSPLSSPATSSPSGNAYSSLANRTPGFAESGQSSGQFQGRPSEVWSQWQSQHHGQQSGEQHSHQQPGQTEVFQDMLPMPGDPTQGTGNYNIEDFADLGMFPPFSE
endogenous ARNT2 (HEK293T) (human (endogenous in HEK293T)), sequence (Q9HBZ2 whole entry): as above

B1: NPAS4.F147S-mycFlag (natural protein)
chain: MYRSTKGASKARRDQINAEIRNLKELLPLAEADKVRLSYLHIMSLACIYTRKGVFFAGGTPLAGPTGLLSAQELEDIVAALPGFLLVFTAEGKLLYLSESVSEHLGHSMVDLVAQGDSIYDIIDPADHLTVRQQLTLPSALDTDRLSRCRFNTSKSLRRQSAGNKLVLIRGRFHAHPPGAYWAGNPVFTAFCAPLEPRPRPGPGPGPGPASLFLAMFQSRHAKDLALLDISESVLIYLGFERSELLCKSWYGLLHPEDLAHASAQHYRLLAESGDIQAEMVVRLQAKTGGWAWIYCLLYSEGPEGPITANNYPISDMEAWSLRQQLNSEDTQAAYVLGTPTMLPSFPENILSQEECSSTNPLFTAALGAPRSTSFPSAPELSVVSASEELPRPSKELDFSYLTFPSGPEPSLQAELSKDLVCTPPYTPHQPGGCAFLFSLHEPFQTHLPTPSSTLQEQLTPSTATFSDQLTPSSATFPDPLTSPLQGQLTETSVRSYEDQLTPCTSTFPDQLLPSTATFPEPLGSPAHEQLTPPSTAFQAHLDSPSQTFPEQLSPNPTKTYFAQEGCSFLYEKLPPSPSSPGNGDCTLLALAQLRGPLSVDVPLVPEGLLTPEASPVKQSFFHYSEKEQNEIDRLIQQISQLAQGMDRPFSAEAGTGGLEPLGGLEPLDSNLSLSGAGPPVLSLDLKPWKCQELDFLADPDNMFLEETPVEDIFMDLSTPDPSEEWGSGDPEAEGPGGAPSPCNNLSPEDHSFLEDLATYETAFETGVSAFPYDGFTDELHQLQSQVQDSFHEDGSGGEPTF
B1 displayed an induction of BDNF exon I mRNA in 293TREX cells (quantitative real-time PCR), reduction against WT NPAS4 in assay [1] of 90%.

B2: NPAS4.F147A-mycFlag (natural protein, human, UniProt Q8IUM7 1-802, looked up)
chain: B1 chain with S147A
For the molecule B2, the “activity on the 6xCME-Luc luciferase reporter gene in HEK293T cells, percent of WT NPAS4” value in assay [2] is ~65 % of wt.
